Results on four molecules are retold here after publication PMC12680351, “The novel GlcNAc 6-phosphate dehydratase NagS governs a metabolic checkpoint that controls nutrient signaling in Streptomyces” (PLOS Biology, 2025).

In series [1] the target is T1, NagS (Streptomyces coelicolor, UniProt Q9K3V1).
T1 construct: gene SCO4393; N-terminally His6-tagged NagS
T1 sequence (Q9K3V1 1-251): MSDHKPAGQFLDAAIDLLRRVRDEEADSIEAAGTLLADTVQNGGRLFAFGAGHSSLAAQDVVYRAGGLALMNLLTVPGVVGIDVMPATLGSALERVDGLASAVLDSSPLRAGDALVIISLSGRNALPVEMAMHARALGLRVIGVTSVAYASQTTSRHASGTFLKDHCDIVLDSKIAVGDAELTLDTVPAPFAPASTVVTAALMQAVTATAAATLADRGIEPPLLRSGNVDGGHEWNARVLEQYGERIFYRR
Put plainly: X-ray crystal structure ([…] Å); competitive inhibition kinetics; thermal denaturation. The format is biochemical.

The target in series [2] is T2, NagS (Streptomyces coelicolor, UniProt Q9K3V1, S54A).
T2 construct: gene SCO4393
The format is biochemical.

Substrate in series [3]: CC(=O)N[C@@H]1C(O)O[C@H](COP(=O)(O)O)[C@@H](O)[C@@H]1O
Put plainly: purified protein.

Substrate in series [4]: CC(=O)N[C@H]1C(O)O[C@H](COP(=O)(O)O)[C@@H](O)[C@@H]1O
Put plainly: purified protein.

Substrate in series [5]: CC(=O)N[C@H]1C(O)O[C@H](COP(=O)(O)O)[C@H](O)[C@@H]1O
Put plainly: purified protein. The note with it: divalent metal cation ([…] ZnCl2 supplemented during expression).

Series [6] deals with the molecule itself. Put plainly: SEC; analytical size-exclusion chromatography, Superdex 200 10/300 GL, NagS at 35 uM and 70 uM, 20 mM HEPES pH 7.5, 300 mM NaCl, 5% glycerol, 1 mM DTT; calibrated with a protein standard mix (15-600 kDa).
Where [7] appears, read: divalent metal cation ([…] ZnCl2 supplemented during expression).
The mark [8] stands for this setting: catalytic site formed by both monomers, Ser54, Ser91, Glu94, Ser119, Ser121, His53 main chain, ArgB64, AsnB228, AlaB65, GlyB227.

Like-named read-outs stand apart in the source and are kept apart here.

T2 sequence (Q9K3V1 whole entry S54A): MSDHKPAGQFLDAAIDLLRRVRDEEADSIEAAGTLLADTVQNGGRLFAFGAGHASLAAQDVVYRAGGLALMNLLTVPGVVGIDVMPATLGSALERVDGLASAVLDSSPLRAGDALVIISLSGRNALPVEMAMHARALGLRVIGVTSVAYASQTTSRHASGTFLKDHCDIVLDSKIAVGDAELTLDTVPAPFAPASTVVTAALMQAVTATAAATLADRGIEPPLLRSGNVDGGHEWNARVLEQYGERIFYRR

For the molecule `O=C(O)[C@H](O)[C@@H](O)[C@H](O)[C@H](O)COP(=O)(O)O` [6-phosphogluconate], the Ki (commonly the equilibrium dissociation constant of an inhibitor or competing ligand from its target) in series [1] worked out at 280 ± 30 µM.
Regarding `CC(=O)N[C@H]1C(O)O[C@H](COP(=O)(O)O)[C@@H](O)[C@@H]1O` (stereo partly drawn) [GlcNAc-6P], the Michaelis constant (Km) (usually the substrate concentration at which the rate is half of its maximum) in series [2] was found to be 850 ± 90 µM.

B1: NagA (Streptomyces coelicolor A3(2)) (protein)
chain: MAPSKVLAGARVVLPTGTVDDGRVIVDGARIADTAPPQAETVDLAGHWVVPGFVDIHNHGGGGASFAGGTAEEILAGVETHRRHGTTTVVASAVTGDLDFLARHAGMLAELAQQGDIVGIHFEGPFISPCRKGAHDEQLLRDPDPAEVRKLVDAAHGHAKMMTLATELPGGLDSVRLLVEHGVIAAVGHTDATYEQTVQAIDAGATVATHLFNAMPPVGHRAPGPITALLEDERITVELINDGTHLHPAALQLAFHHAGAARVAFITDAMDAAGFGDGHYLLGPLEVEVADGVARLVEGGSIAGSTLTLDRAFKRAVTVDRLPVGDVVAAISANPARLLGLDDRIGSLEPGKDADLVVLDDAFDLVGVMRRGEWVVDPHLG
As for B1, in series [3] (setting [7]), the Michaelis constant (Km) stood at 2400 ± 440 µM; the turnover number (kcat) (in general, the number of substrate molecules converted per active site and unit of time at saturation) is 14.6 ± 1.1 s⁻¹; the kcat/Km – broadly, the second-order rate constant that governs catalysis at low substrate concentration – came out at 6060 M⁻¹ s⁻¹. In series [4] (setting [7]), the Km was determined as 1590 ± 210 µM, the catalytic constant (kcat) was 160 ± 9.02 s⁻¹ and the specificity constant (kcat/Km) worked out at 101000 M⁻¹ s⁻¹. Besides, in series [5], the Michaelis constant (Km) was 2840 ± 410 µM, the kcat was determined as 29.2 ± 2.31 s⁻¹ and the kcat/Km worked out at 10300 M⁻¹ s⁻¹.

B2: GlcNAc-6P dehydratase NagS (SCO4393) of Streptomyces coelicolor (enzyme, UniProt Q9K3V1 1-251, looked up)
chain: MSDHKPAGQFLDAAIDLLRRVRDEEADSIEAAGTLLADTVQNGGRLFAFGAGHSSLAAQDVVYRAGGLALMNLLTVPGVVGIDVMPATLGSALERVDGLASAVLDSSPLRAGDALVIISLSGRNALPVEMAMHARALGLRVIGVTSVAYASQTTSRHASGTFLKDHCDIVLDSKIAVGDAELTLDTVPAPFAPASTVVTAALMQAVTATAAATLADRGIEPPLLRSGNVDGGHEWNARVLEQYGERIFYRR
notes: NagS (SCO4393), Streptomyces coelicolor A3(2) M145; calculated mass of the NagS-His6 monomer 28.29 kDa; The methods say N-terminally His6-tagged (pET-15b); the results write NagS-His6; also called NagS-His6; N-acetylglucosamine-6-phosphate dehydratase; source: E. coli Rosetta (DE3)pLysS, purified (Ni-NTA, size-exclusion chromatography on Superdex 200); not shown: His6, N-terminal, kept
With B2, in series [3], the Km stood at 680 ± 50 µM, the kcat was determined as 0.9 ± 0.02 s⁻¹ and the specificity constant (kcat/Km) is 1320 M⁻¹ s⁻¹. Besides, in series [4] (setting [8]), the Michaelis constant (Km) was found to be 450 ± 30 µM, the catalytic constant (kcat) stood at 24.7 ± 0.38 s⁻¹ and the kcat/Km turned out to be 54800 M⁻¹ s⁻¹. In addition, the stoichiometry N (as a rule, a count of units in the complex or per binding partner) in series [6] was 2.
